Assay: label from the status in PepcDB records
For “MQVLHVCSEMFPLLKTGGLADVIGALPAAQIADGVDARVLLPAFPDIRRGVTDAQVVSRRDTFAGHITLLFGHYNGVGIYLIDAPHLYDRPGSPYHDTNLFAYTDNVLRFALLGWVGAEMASGLDPFWRPDVVHAHDWHAGLAPAYLAARGRPAKSVFTVHNLAYQGMFYAHHMNDIQLPWSFFNIHGLEFNGQISFLKAGLYYADHITAVSPTYAREITEPQFAYGMEGLLQQRHREGRLSGVLNGVDEKIWSPETDLLLASRYTRDTLEDKAENKRQLQIAMGLKVDDKVPLFAVVSRLTSQKGLDLVLEALPGLLEQGGQLALLGAGDPVLQEGFLAAAAEYPGQVGVQIGYHEAFSHRIMGGADVILVPSRFEPCGLTQLYGLKYGTLPLVRRTGGLADTVSDCSLENLADGVASGFVFEDSNAWSLLRAIRRAFVLWSRPSLWRFVQRQAMAMDFSWQVAAKSYRELYYRLK”, the protein production was “failed”.
For “MQVQHHNAHLSRSVQAQVARLVLQANLAYGESNSNGLSYIQRLKARNECREYLNQALALEADHAAALGLLGRVEMDDGQLEKAHALFNASLNRQPAQAQQYCNLGYWALKSERPALAEEYFLQALECDRQSAAAFCGVAHAKRLQGQFDVAYLHYRKLLQSGSEWDSVYSGMLSCAQHLQVHKADSDLALDAIALLRQEGLPHQEIGHFVGAIIQQQYDLDNPNAEIFLDAAAEDELLILALQKTLMPNAAVEELVVLLRRAIMAEVAQTASLRDELQPLCLAIAEYADRTGFALAAEDDEERLAATINESIMAQFAVGEPQEALIGSLMISAMYGALFHQNFAVQLGQWNLVDWPLAMQPIMAASYYNRAEEEAIKQNFDEKAEELCLEKTDVPQAWPAWSQLAYRTETSLKAVMAQELGLNTDNLPATLRIMVCGAQSGQRAMELAQYLNDVEVIAVDESLANIAKGTRMAQSLNMDNIVFWPWSIAQRFVADGHKVHWVEVGRLPSPAMTELSLAALINSASIAGAVVHMHTSMAEQTAGDKQIRRLIAEHQLQPTRTSLRQLRRMVLANKQDAVWSSLLQDDDFYSLGGCRDRWFRPQDANQLKELLALVSNEVEWKLVKARDEDGHSLATGPVQRQIQAEALGSEVQSLMGQNLSVYFQRRR”, the protein production was “failed”.
For “MQVSVETTQGLGRRVTITIAADSIETAVKSELVNVAKKVRIDGFRKGKVPMNIVAQRYGASVRQDVLGDLMSRNFIDAIIKEKINPAGAPTYVPGEYKLGEDFTYSVEFEVYPEVELQGLEAIEVEKPIVEVTDADVDGMLDTLRKQQATWKEKDGAVEAEDRVTIDFTGSVDGEEFEGGKASDFVLAMGQGRMIPGFEDGIKGHKAGEEFTIDVTFPEEYHAENLKGKAAKFAINLKKVEERELPELTAEFIKRFGVEDGSVEGLRAEVRKNMERELKSAIRNRVKSQAIEGLVKANDIDVPAALIDSEIDVLRRQAAQRFGGNEKQALELPRELFEEQAKRRVVVGLLLGEVIRTNELKADEERVKGLIEEMASAYEDPKEVIEFYSKNKELMDNMRNVALEEQAVEAVLAKAKVTEKETTFNELMNQQA”, the protein production was “not failed”.
For “MQWQESLPWTPEARQKLKNIPYFARVQARQRIEQLARQADLDEVTVDLVEQARLEFGQ”, the protein production was “failed”.
For “MQWRNTSSRYGVFSLFLHWGSALVVFGLFGLGLWMRELSYYDPWYHPAPALHKSIGILLAIALLVRIVWRFVSPPPPAPANHGPLTRVASKLGHLALYGLLLAVIVAGYLISTADGEPISVFGWFSVPATLSGLPDQADVAGEIHLYLAWALVVFAVLHALAALKHHFVDRDPTLKRMLGRSSNDQQPR”, the protein production was “not failed”.
For “MQYLSILEALGGLGVFILGMKTMSEGLQKIAGDRFRRHLERIAGNRLTAALLGSTLSSLLQSSSAACIITVGFINAGLISLYQALGILLGTGIGTTLAVQFIAFKISSFALPAVFVGVCLRCFLRRRRWVNAGELILGAGLLFLGLRIMESNLQPLQEYAIVFTHQDMFVSKRIAAVLFGATLTLLVQSGSTAIAVIMALAGSSLVSFETGAAMVIGELLGTSVITAFASIGGTLEAKRTVFFYFMVNLLAVVVVMLVFPSYLSFVTYISPEDIASSAGISRVLANTHTLFSIMSAVIFLPLIGFFARTAPRIIPGSERASSVEARTVFIDPRVLNTPPIALLQARSELRRMAGISLTMYSEMVEQFFRYDARKAVGIRQKENAVDILQRDLTDFLVSLSRRELAPEASMEIPVMLQLIGELEHVADQSEAVLDYLRRKKEEKLLFSNAAMTEIRHLARTVEKLVDLAVETMDNPPPDAVEQGRSLRDDVGRQREAMLDGHIKRLSAGKCSVRAGIIYADMITAFVKIADSSVTIIETRKEFT”, the protein production was “failed”.
For “MRAAALAGAAGVVLCLLGGIGGAVAALSLWLAQPAFALAVSWARGTRAVPGQPRAIAQALPPLLAIWGVGLLALAALISWPLTALRDSGSLAAALALSVAVSAALLGLWRTWPLWGEVERDGGALAPRWQALAAQELHAWRGLLAAALVLAMCTLAVVLAWPGWLSGGLRWGLAVAACVLLPVAHLLLQRTPAPMRSDVPQTRQAADFFSEAAAEPRPLEPVAQHQLVPELFEAARSGRVDRALQLLEAGADPQALPLPEWRDQRSLPALAAVLPDLRLLRELIVRRVDVNQPHRGMTPLLAATRDSWHGRPDAVMTLLANGADPRASDNDGNTPLHHAVRSSDPGVAALLHDAAAELDALNNEGHSPLAMACQVGNWRLAKFLLERGAQSEPEGGAPVLLAAAGTEEDDPAGVQLLLKHKARVDARDRQRRSALHEAALAGHGDIVEALLSAGANLEARDLLGRTPWLDAARQARSAVLERLVARKADVLAIDGDGRNALMLACAADNVSPALIRRLLDLQVPADSVDAHGRRAVDVAAEAGRWAIVQLLDPAYPLPAAVSDAQGDTPGAAVLPDRPPLVLLREGLQLGQRDGLVALARLCAPDELGGLLHDAHLALNAEAVDWLLRHGADAEVRDACGDVPMFALLSRGVEAVPALQALLRHGVSPAGAGGLTRLLSACVQHDAASRGLEQFALELLERGADPFAPSAAGDPPLSLAVRLGWLRLQHWLLEHGVDREARDSHGMTALHLATALGRDASLKLLVKQGASPEARAADGQTPLGVALSIGRRDLADWLDWRIWSLPRRTLREADVPAAAMTGDTDAVRRLIDLGLAVDAVDAQGCTALLRAAGGGHLGVVTHLLGRGADPQRAANSGATPLSAAVSMRQTEIVAALLHAGAQIEHRLPGGVTVLMLACALGLPDIVARLLTAAADVHATDNQGLAPLHCAALYGFTARDKNRLLALLDTLLLAGADPDYLAGGRVSPLLLLLGARAEPGTSCDEQVVLAGVERLLDEDVSLDVADQRGFGPLHLAALHGLPLLVQRLLRAGADADRRDALNRTPREIAIMRGFIDVAGQFEPALPGVSSMARFLREGR”, the protein production was “failed”.
In the case of “MRAARLIKMVLLLQSRPTMTAAELARELEVSERTVTRDAQALSEAGVPVYAERGRAGGYRLVGGYRTRLTGLARGEAEALFLSGVPGALREMGLEDAASAARLKVSAALLPSLRDASRTAAQRFHLDAPNWFREPETPELLPAVADAVWDDRRVAARYRRGTDEVVRELEPYGLVLKAGVWYLCARVAGTAGDGPFRVYRIDRFTAVEAGEERFVRDDGFDLPAFWAERAEQFARSILRAEVVVRLSERGVRGLPYAVDALSAREALEAAGAPDADGWVTVALPVESEEVAHAQLRGLGPEVEVLAPAALRERFAREARRLAELYGG”, the protein production was “failed”.
For “MRAAVRTRIVATYLAVAALWGSTWMAIRIGLEDLPPLRFAGVRMAIAALVLAPFALRGGAWREVVGPARAQLALVAVLQIALPYGLMFVAQQWVPSGLAAVLFASFPVWIALLARALVPGETLTPARVASALLGIAGVAVLQLPHLGDLEGSGRLLLGGALVVLSSMIVALANVLVRRHLAAVSPLAMTAGQTAVGAVLLLAAAALLEQGRPAAFTASAVAALAWLAVFGTALTYVGLYWLVPRVPMAAIGALPLLDTSVAVTLGALVLHEPVGWNLALGGGMVLAAAALTIPRRR”, the protein production was “failed”.
For “MRACAPIFRLLGGGVEHLGKSGRPGSGGRWWPLCGWLALAALVPAVQAEEGEPAPVEASAAARLVDVNEYFVRGNTVLDARAIEEAVYPFLGPQKALADIEGARDALQKVYQERGYQSVFVELPEQKVEDGIVYLQVSETKVGRVRVVGAKHYSPVEIRDQVPALKEGEVPDFATVQSQLAGLNRGAGRQVMPLVREGQRPGTMDVDLQVEDQNPWHASVGLNNDYSADTEKLRTVVNVGYDNLWQLGHSISLTYFTAPQDTDNAKVWSGSYTAPLSDRWALQFSGYQSDSNIATIGGSNVLGKGHSYGVSAIYTLPAAGNWANSLSVGVDFKDFEEEMRFGRSSDQIPLKYAPMTFGYNGYRYSEKAQLGLGLNLIVGTRRFFGYGSDAEEFHYKRDEASASFSVLKGDLNFTYTFANDWQSASKAAFQLASGPLVSNEQYSAGGATSVRGYLAAERTGDEGYLFSQELRTPSLAKFLGSYVQEWRFYAFAEGAHLSLHDPLPEQEDEYSLASVGLGTRASLSKWLSGSLDWGYPLKDGPNTQKYDPRLHFSVQATF”, the protein production was “failed”.
With “MRADRSMLGPSLHRDQIMAMNRVQFQAGLSLPAFLKRYGNAQQCEQALEISRWPQGFVCPHCAATAHSRFQRHGTTYWQCTACYRQTSLRSGTVMDNSKLPLRTWLLGMYLLGQSKTNLSALELMRHLGVSYPTAWPMKHKLMQAMTQREANRKLGGIVQLDDAYLGGERNGGKAGRGSENKRLFVIAVETTEDGRPLRAVMDPVPGFTKAALSEWIGQRLHPGADVYSDGLGAFRALEAEHAHTVIEGSGRSRCEAENARWVNVVLSNLKRSLDGAYHAFKYAQRYLAETMWRFNRRFDLTRLVPSLLAAAAASKPWSERALRDVTMFTAESAC” the protein production was “failed”.
With “MRALIRYEDVPSKLWTLPKMTDFWGIGKRTEKRLNKLGISSIKELTNADPLLLKQKLGTIGLQHFFHANGIDESNVRLEHHHHHH” the protein production was “failed”.
For “MRALIVSNPNSTTQSAEMFRHVIPTLRAVPGLELRAQMTHYAGHARHMCENLTVEDYDVVIAVGGDGTVNEVINGLLGDLPSAPPALAVIPTGSANVFARALGLPADPAQAAEVLADALHKGSTRRINLGKWGS”, the protein production was “failed”.
In the case of “MRAMVSRLNSAVSRLFLFAFVAVMPTLVQAQSVNEGQSVRALTTDSSGALLVLRQSGLFALDSQNTTEIPLPPSDSGAQPRSMAKGGDESLYLAGPGLGIWRYDEASKRWQSLNDTLPDLGVTAIAAHATQPDTLYAYLGDGGMFRSRDDGAEWVKVDNGPREPVQAFLHSDMPGSMESGWLFAGTTRGVARSMDCFCFWGDAGELRGTVSAIDYDPWAPENVYAVIEGELHRSSDGGETWAGLEIPQAVTALTFSPTERLVVGTENGELLSQNASGEWVPVYE”, the protein production was “failed”.
In the case of “MRATACWFVSGLVTFKSENKTRRLVSATHNSRPSMSRVRSWILVVGVLVGAVGGCAEPQDGRGPATADSIAATAPGTDVVGAPLDASGDTLRMGRPTPVTTRPGYDNQPAFLPDGSGLVWTAIHDGQADVYRKIEDEGGPAPVTDTPESEFSPTPRPGGALTLVRVEADGRQRLWRYRADGTPDAPVLPDADSVGYHAWLDSSRVALFVLGAPPTLHVANVKSGTDTVVARRIGRSLQSVPGRADVSFVQVGPDSSVAIHRLDGASLTTRRLTEAPTNAPTGDHAWTPGGHLLMTTEDSLVAWRRGRADWRPVAALDTMDVSRLAVSPSGDRLAMVAAE”, the protein production was “failed”.
For “MRAVIPYKKAGAKSRLSPVLSLQEREEFVELMLNQVISSLKGAGIEQVDILSPSVYGLEEMTEARVLLDEKDLNEALNRYLKEAEEPVLIVMADLPLLSPEHIKEISSTEKDVCIVPGKGGGTNALFIKNPSKYRVKYYGSSFLTHCSIATDSGQDFEIYDSFMAGTDIDEPEDLVELLIHGKGAAKDYIESKFRLEVKKG”, the protein production was “failed”.
With “MRDATYPQLWAAVRAARKAGRTLESVKPAADQFQVKHNGDIVTEADRTVEETILAELSGQFPVHTVVSEESAPEFTTKPRWIIDPIDGTTNFLNGIPHYSISIAFEGAGEPDVGIVYHVPSETMYTAIEGGGAYANGQPLSLSATTELSEALIVTGFDTASMQAQEYDHFRTILNVTQGVRRFGSAAGELAMVAAGQFDAFFERQLSVWDTAAGVKIVEEAGGEVTRIKALDGKNSEMVLASNEAIHQDLVALVSAGTVPKMDGQ” the protein production was “failed”.
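Note: failed if final PepcDB status was selected cloned or expressed and not failed if soluble or beyond.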
